Experimental data from article PMC7401798.

Assays:
[1] = molecular target: Taxol-stabilized microtubules (UniProt P02550); test: co-sedimentation
[2] = molecular target: HIS-TAN1-GFP (maize); test: pull-down
HIS-TAN1-GFP (maize), sequence (C0PM98 whole entry): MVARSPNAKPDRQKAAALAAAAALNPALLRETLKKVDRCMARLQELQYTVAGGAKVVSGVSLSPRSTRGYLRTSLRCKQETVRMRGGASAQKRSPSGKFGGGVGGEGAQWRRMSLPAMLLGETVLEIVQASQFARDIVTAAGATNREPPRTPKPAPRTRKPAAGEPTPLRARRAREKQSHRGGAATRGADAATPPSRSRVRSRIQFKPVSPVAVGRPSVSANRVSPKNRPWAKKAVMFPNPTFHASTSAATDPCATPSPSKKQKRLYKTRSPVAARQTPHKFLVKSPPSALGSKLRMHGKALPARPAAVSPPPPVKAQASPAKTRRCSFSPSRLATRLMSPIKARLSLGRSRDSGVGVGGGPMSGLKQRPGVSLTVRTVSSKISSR

HIS-TAN1-GFP (natural protein), sequence (C0PM98 whole entry): as above
Atto488-tagged HIS-TAN1-GFP (natural protein), sequence (C0PM98 whole entry): as above

Row | Substance | apparent affinity [1] [µM] | other results
1 | 6xHIS-tagged ZmTAN1 (TANGLED1) (natural protein) |  | K0.5 [1]: 1.08 µM
2 | Atto488-tagged HIS-TAN1-GFP (natural protein) | 0.05 | 
3 | HIS-TAN1-GFP (natural protein) | 0.595 | 
4 | tubulin dimers (from UniProt P02550 1-451) (complex) |  | stoichiometry N (tubulin dimers per HIS-TAN1-GFP) [2]: 2
